Data: US11400139B2, “Anti-NET compounds for treating and preventing fibrosis and for facilitating wound healing” (THE CHILDREN'S MEDICAL CENTER CORPORATION, priority 2015, dated 2022)
“Also recorded” adds a separate entry of the source.

Legend:
PAD4 expressing cells = conditions: Subramanian et al.; cited from earlier work
[1] = system: neutrophil extracellular traps; conditions: Subramanian et al.; cited from earlier work
NETs [2] = assay: Full-thickness excisional skin wound healing with systemic DNase 1 treatment; format: in vivo, mouse
Method: Mice were induced to be diabetic using multiple low dose injections of streptozotocin (STZ). Six to 8-week old male C57BL/6 or PAD4^−/− mice were randomized into treatment groups of either vehicle or STZ according to their blood glucose levels and body weight at baseline. Mice were fasted for 5 hours and then injected with vehicle or STZ (i.p., 50 mg/kg per day, pH 4, dissolved in 0.1 M sodium citrate buffer) for 5 consecutive days. Fed blood glucose level was measured starting 1 week afterwards. Mice with fed blood glucose level above 300 mg/dL were considered diabetic and used for further experiments. Pancreatic islets were stained for insulin using a rabbit polyclonal anti-insulin antibody (1:500, Cell Signaling, Cat. no. 4590).
Full-thickness excisional wounds were made on the dorsal skin under aseptic conditions as described^22. Mice were anesthetized with ketamine and xylazine (100 mg/kg and 10 mg/kg, respectively, i.p.). Hair was removed and the skin was cleaned with 70% ethanol and betadine. A fold of the dorsal skin was then picked up along the midline, placed over dental wax and punched through with a 4-mm disposable sterile biopsy punch (Miltex) such that 2 wounds were generated in one punch. The procedure was repeated, thus 4 wounds were made per mouse. The mice were housed individually after wounding. In experiments involving diabetic mice, all mice were provided ad libitum with antibiotics (2.5% Sulfatrim) in drinking water. Wounds were digitally photographed using a Sony Camcorder and total wound areas were calculated using ImageJ software. Wound area was expressed as a percentage compared to the area on day 0 when the wounds were made.
Neutrophil recruitment and re-epithelialization were examined in H&E-stained sections. Wounds were cut in half, fixed overnight in zinc fixative and embedded in paraffin. The tissue was sectioned at 10 μm and stained with H&E. Images were acquired with the Zeiss Axiovision software using an Axioplan light microscope coupled to a color Zeiss HRc camera.
Normoglycemic and diabetic WT mice, randomized by blood glucose levels before assigning to treatments, were injected with 10 μg i.v. and 50 μg i.p. DNase 1 (dornase alfa, Genentech) 30 min before wounding and then 50 μg i.p. every 12 hours until wound collection on day 3. Control mice were injected with vehicle (8.77 mg/mL sodium chloride and 0.15 mg/mL calcium chloride)^40.

NETs [3] = conditions: pre-digestion of NETs with DNase 1, in vitro (Farrera and Fadeel); cited from earlier work
[4] = normoglycemic WT mice, three days post wounding

Molecule	cell killing (PAD4 expressing cells)	formation of neutrophil extracellular traps [1]	enhancement of re-epithelialization (NETs [2]; STZ-induced diabetic WT mice on antibiotics, day 3 post wounding) [%]	promotion of wound area reduction (NETs [2]; STZ-induced diabetic WT mice on antibiotics, day 3 post wounding, 10 μg i.v. and 50 μg i.p. before wounding, then 50 μg i.p. every 12 hours) [%]	wound healing (wound area reduction and re-epithelialization), in words (NETs [2]; WT mice, diabetic and normoglycemic)	further benefit in wound healing (NETs [2]; diabetic PAD4−/− mice, day 3 post wounding)	enhancement of re-epithelialization (NETs [2]; [4]) [%]	neutrophil recruitment to the wound (NETs [2]; [4])	wound area versus vehicle (NETs [2]; [4])	clearance of NETs by macrophages (NETs [3])
CC(C)(C)n1nnc([C@H](CCCNC(=N)CCl)NC(=O)c2ccc(-c3ccccc3)cc2)n1 [BTT-Cl-amidine, biphenyl tetrazole tert-butyl Cl-amidine]	enhanced cell killing	blocks the formation	–	–	–	–	–	–	–	–
DNase 1: DNase 1 (dornase alfa, Genentech), which disrupts NETs (protein, UniProt P24855 23-282, looked up) Deoxyribonuclease-1: LKIAAFNIQTFGETKMSNATLVSYIVQILSRYDIALVQEVRDSHLTAVGKLLDNLNQDAPDTYHYVVSEPLGRNSYKERYLFVYRPDQVSAVDSYYYDDGCEPCGNDTFNREPAIVRFFSRFTEVREFAIVPLHAAPGDAVAEIDALYDVYLDVQEKWGLEDVMLMGDFNAGCSYVRPSQWSSIRLWTSPTFQWLIPDSADTTATPTHCAYDRIVVAGMLLRGAVVPDSALPFNFQAAYGLSDQLAQAISDHYPVEVMLK	–	–	> 75	> 20	accelerated wound healing; also recorded: facilitated wound area reduction	did not provide further benefits; also recorded: did not provide additional benefits	~54	not affected	smaller than in those treated with vehicle	accelerated their clearance
